The text below walks through data of paper PMC3656769.

Holding throughout (conditions): glycan lost; control: wild type
Series [1] in a line: cell surface biotinylation, Western, HEK 293.
The nature of series [2]: surface biotinylation, FLAG IP, nonreducing Avidin-HRP blot, Hep3B.
The nature of series [3]: confocal immunofluorescence, nonpermeabilized HEK 293.
The nature of series [4]: nonreducing SDS-PAGE Western, Hep3B stable cells.
Series [5] can be described thus: Western after 12 h holo-Tf, Hep3B transient and stable.

B1: Transferrin receptor 2 (hTfR2): 3-Mut (protein)
parent chain: MERLWGLFQRAQQLSPRSSQTVYQRVEGPRKGHLEEEEEDGEEGAETLAHFCPMELRGPEPLGSRPRQPNLIPWAAAGRRAAPYLVLTALLIFTGAFLLGYVAFRGSCQACGDSVLVVSEDVNYEPDLDFHQGRLYWSDLQAMFLQFLGEGRLEDTIRQTSLRERVAGSAGMAALTQDIRAALSRQKLDHVWTDTHYVGLQFPDPAHPNTLHWVDEAGKVGEQLPLEDPDVYCPYSAIGNVTGELVYAHYGRPEDLQDLRARGVDPVGRLLLVRVGVISFAQKVTNAQDFGAQGVLIYPEPADFSQDPPKPSLSSQQAVYGHVHLGTGDPYTPGFPSFNQTQFPPVASSGLPSIPAQPISADIASRLLRKLKGPVAPQEWQGSLLGSPYHLGPGPRLRLVVNNHRTSTPINNIFGCIEGRSEPDHYVVIGAQRDAWGPGAAKSAVGTAILLELVRTFSSMVSNGFRPRRSLLFISWDGGDFGSVGSTEWLEGYLSVLHLKAVVYVSLDNAVLGDDKFHAKTSPLLTSLIESVLKQVDSPNHSGQTLYEQVVFTNPSWDAEVIRPLPMDSSAYSFTAFVGVPAVEFSFMEDDQAYPFLHTKEDTYENLHKVLQGRLPAVAQAVAQLAGQLLIRLSHDRLLPLDFGRYGDVVLRHIGNLNEFSGDLKARGLTLQWVYSARGDYIRAAEKLRQEIYSSEERDERLTRMYNVRIMRVEFYFLSQYVSPADSPFRHIFMGRGDHTLGALLDHLRLLRSNSSGTPGATSSTGFQESRFRRQLALLTWTLQGAANALSGDVWNIDNNF
In the case of B1, the localisation_or_trafficking entry in series [1], in series [2] and in series [3] was “no change” throughout. Also, in series [4], the oligomerisation result was “decreases”.

B2: Transferrin receptor 2 (hTfR2): N240A (protein)
parent chain: MERLWGLFQRAQQLSPRSSQTVYQRVEGPRKGHLEEEEEDGEEGAETLAHFCPMELRGPEPLGSRPRQPNLIPWAAAGRRAAPYLVLTALLIFTGAFLLGYVAFRGSCQACGDSVLVVSEDVNYEPDLDFHQGRLYWSDLQAMFLQFLGEGRLEDTIRQTSLRERVAGSAGMAALTQDIRAALSRQKLDHVWTDTHYVGLQFPDPAHPNTLHWVDEAGKVGEQLPLEDPDVYCPYSAIGNVTGELVYAHYGRPEDLQDLRARGVDPVGRLLLVRVGVISFAQKVTNAQDFGAQGVLIYPEPADFSQDPPKPSLSSQQAVYGHVHLGTGDPYTPGFPSFNQTQFPPVASSGLPSIPAQPISADIASRLLRKLKGPVAPQEWQGSLLGSPYHLGPGPRLRLVVNNHRTSTPINNIFGCIEGRSEPDHYVVIGAQRDAWGPGAAKSAVGTAILLELVRTFSSMVSNGFRPRRSLLFISWDGGDFGSVGSTEWLEGYLSVLHLKAVVYVSLDNAVLGDDKFHAKTSPLLTSLIESVLKQVDSPNHSGQTLYEQVVFTNPSWDAEVIRPLPMDSSAYSFTAFVGVPAVEFSFMEDDQAYPFLHTKEDTYENLHKVLQGRLPAVAQAVAQLAGQLLIRLSHDRLLPLDFGRYGDVVLRHIGNLNEFSGDLKARGLTLQWVYSARGDYIRAAEKLRQEIYSSEERDERLTRMYNVRIMRVEFYFLSQYVSPADSPFRHIFMGRGDHTLGALLDHLRLLRSNSSGTPGATSSTGFQESRFRRQLALLTWTLQGAANALSGDVWNIDNNF
Regarding B2, in series [5], the “other: holo-Tf-induced stabilisation (protein level), fold_change” value (shortened to “other … fold_change”) was “no change”.

B3: Transferrin receptor 2 (hTfR2): N339A (protein)
parent chain: MERLWGLFQRAQQLSPRSSQTVYQRVEGPRKGHLEEEEEDGEEGAETLAHFCPMELRGPEPLGSRPRQPNLIPWAAAGRRAAPYLVLTALLIFTGAFLLGYVAFRGSCQACGDSVLVVSEDVNYEPDLDFHQGRLYWSDLQAMFLQFLGEGRLEDTIRQTSLRERVAGSAGMAALTQDIRAALSRQKLDHVWTDTHYVGLQFPDPAHPNTLHWVDEAGKVGEQLPLEDPDVYCPYSAIGNVTGELVYAHYGRPEDLQDLRARGVDPVGRLLLVRVGVISFAQKVTNAQDFGAQGVLIYPEPADFSQDPPKPSLSSQQAVYGHVHLGTGDPYTPGFPSFNQTQFPPVASSGLPSIPAQPISADIASRLLRKLKGPVAPQEWQGSLLGSPYHLGPGPRLRLVVNNHRTSTPINNIFGCIEGRSEPDHYVVIGAQRDAWGPGAAKSAVGTAILLELVRTFSSMVSNGFRPRRSLLFISWDGGDFGSVGSTEWLEGYLSVLHLKAVVYVSLDNAVLGDDKFHAKTSPLLTSLIESVLKQVDSPNHSGQTLYEQVVFTNPSWDAEVIRPLPMDSSAYSFTAFVGVPAVEFSFMEDDQAYPFLHTKEDTYENLHKVLQGRLPAVAQAVAQLAGQLLIRLSHDRLLPLDFGRYGDVVLRHIGNLNEFSGDLKARGLTLQWVYSARGDYIRAAEKLRQEIYSSEERDERLTRMYNVRIMRVEFYFLSQYVSPADSPFRHIFMGRGDHTLGALLDHLRLLRSNSSGTPGATSSTGFQESRFRRQLALLTWTLQGAANALSGDVWNIDNNF
As to B3, the “other … fold_change” value in series [5] is “no change”.

B4: Transferrin receptor 2 (hTfR2): N754A (protein)
parent chain: MERLWGLFQRAQQLSPRSSQTVYQRVEGPRKGHLEEEEEDGEEGAETLAHFCPMELRGPEPLGSRPRQPNLIPWAAAGRRAAPYLVLTALLIFTGAFLLGYVAFRGSCQACGDSVLVVSEDVNYEPDLDFHQGRLYWSDLQAMFLQFLGEGRLEDTIRQTSLRERVAGSAGMAALTQDIRAALSRQKLDHVWTDTHYVGLQFPDPAHPNTLHWVDEAGKVGEQLPLEDPDVYCPYSAIGNVTGELVYAHYGRPEDLQDLRARGVDPVGRLLLVRVGVISFAQKVTNAQDFGAQGVLIYPEPADFSQDPPKPSLSSQQAVYGHVHLGTGDPYTPGFPSFNQTQFPPVASSGLPSIPAQPISADIASRLLRKLKGPVAPQEWQGSLLGSPYHLGPGPRLRLVVNNHRTSTPINNIFGCIEGRSEPDHYVVIGAQRDAWGPGAAKSAVGTAILLELVRTFSSMVSNGFRPRRSLLFISWDGGDFGSVGSTEWLEGYLSVLHLKAVVYVSLDNAVLGDDKFHAKTSPLLTSLIESVLKQVDSPNHSGQTLYEQVVFTNPSWDAEVIRPLPMDSSAYSFTAFVGVPAVEFSFMEDDQAYPFLHTKEDTYENLHKVLQGRLPAVAQAVAQLAGQLLIRLSHDRLLPLDFGRYGDVVLRHIGNLNEFSGDLKARGLTLQWVYSARGDYIRAAEKLRQEIYSSEERDERLTRMYNVRIMRVEFYFLSQYVSPADSPFRHIFMGRGDHTLGALLDHLRLLRSNSSGTPGATSSTGFQESRFRRQLALLTWTLQGAANALSGDVWNIDNNF
With B4, the “other … fold_change” value in series [5] is “no change”.
